Results from US20200216522A1 (DENALI THERAPEUTICS, published 2020).

T1: process-control peptide
T1 construct: array control, not a Tau peptide
T1 peptide: GGSGGGSDYKDDDDK

T2: Peptide_020 (human)
T2 peptide: EIPEGTTAEEAGIGD

T3: Peptide_008 (human)
T3 peptide: EGDTDAGLKESPLQT

T4: Peptide_074 (human)
T4 peptide: GGNKKIETHKLTFRE

T5: Peptide_081 (human)
T5 peptide: GDTSPRHLSNVSSTG

T6: Peptide_038 (human)
T6 peptide: GEPPKSGDRSGYSSP

T7: Peptide_034 (human)
T7 peptide: ANATRIPAKTPPAPK

T8: Peptide_009 (human)
T8 peptide: AGLKESPLQTPTEDG

T9: Peptide_063 (human)
T9 peptide: KPVDLSKVTSKCGSL

T10: Peptide_054 (human)
T10 peptide: LKHQPGGGKVQIINK

T11: Peptide_042 (human)
T11 peptide: PGSRSRTPSLPTPPT

T12: Peptide_015 (human)
T12 peptide: TAEDVTAPLVDEGAP

T13: Peptide_006 (human)
T13 peptide: QGGYTMHQDQEGDTD

T14: Peptide_002 (human)
T14 peptide: QEFEVMEDHAGTYGL

T15: Peptide_047 (human)
T15 peptide: TPPKSPSSAKSRLQT

T16: Peptide_067 (human)
T16 peptide: KPGGGQVEVKSEKLD

T17: Peptide_058 (human)
T17 peptide: NVQSKCGSKDNIKHV

T18: Peptide_036 (human)
T18 peptide: PPAPKTPPSSGEPPK

T19: Peptide_059 (human)
T19 peptide: CGSKDNIKHVPGGGS

T20: Peptide_043 (human)
T20 peptide: RTPSLPTPPTREPKK

T21: Peptide_011 (human)
T21 peptide: PTEDGSEEPGSETSD

T22: Peptide_051 (human)
T22 peptide: PDLKNVKSKIGSTEN

T23: Peptide_025 (human)
T23 peptide: HVTQARMVSKSKDGT

T24: Peptide_077 (human)
T24 peptide: NAKAKTDHGAEIVYK

T25: Peptide_001 (human)
T25 peptide: MAEPRQEFEVMEDHA

T26: Peptide_073 (human)
T26 peptide: THVPGGGNKKIETHK

T27: Peptide_014 (human)
T27 peptide: AKSTPTAEDVTAPLV

T28: Peptide_085 (human)
T28 peptide: DSPQLATLADEVSAS

T29: Peptide_023 (human)
T29 peptide: TPSLEDEAAGHVTQA

T30: Peptide_012 (human)
T30 peptide: SEEPGSETSDAKSTP

T31: Peptide_030 (human)
T31 peptide: DGKTKIATPRGAAPP

T32: Peptide_031 (human)
T32 peptide: IATPRGAAPPGQKGQ

T33: Peptide_044 (human)
T33 peptide: PTPPTREPKKVAVVR

T34: Peptide_017 (human)
T34 peptide: DEGAPGKQAAAQPHT

T35: Peptide_033 (human)
T35 peptide: GQKGQANATRIPAKT

B1: chimeric IgG clone 1A1 (antibody, V domains shown)
VH: EVQLQQSGAELVRPGASVRLSCTASGFNIKDSLMHWLKQRPEQGLEWIGWIDPEDGETKYAPKFQDKATITADTSSNTAYLQLSSLTSEDTAIYYCTRRDWEGPWGQGTLVTVSA
VL: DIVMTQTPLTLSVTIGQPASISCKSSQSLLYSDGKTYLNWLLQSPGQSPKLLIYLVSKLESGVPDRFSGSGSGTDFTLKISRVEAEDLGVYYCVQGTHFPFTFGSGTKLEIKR
notes: mouse-human chimeric IgG from HEK293; also called anti-Tau 1A1; anti-Tau^1A1
B2: chimeric IgG clone 1A5 (antibody, V domains shown)
VH: EVQLQQSGAELVRPGASVKLSCTASGFNIKDSLIHWVKQRPEQGLEWIGWIDPEDGETKYAPKFQDKATKTADTSSNTAYLQLSSLTSEDTAIYYCASGEWDYWGQGTSVTVSS
VL: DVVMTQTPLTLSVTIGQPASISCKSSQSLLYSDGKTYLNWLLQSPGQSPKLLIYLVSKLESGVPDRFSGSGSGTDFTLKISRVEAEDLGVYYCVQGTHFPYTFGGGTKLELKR
notes: mouse-human chimeric IgG from HEK293

What was measured:
Experiment in all cases: peptide array
process-control peptide = target: T1, process-control peptide
Description: (§1) Chimeric IgG antibodies were diluted to a concentration of 5 μg/mL in 3% bovine serum albumin in Tris-buffered saline (10 mM Tris, pH 7.5, 150 mM NaCl) supplemented with 0.05% Tween®20 (3% BSA-TBST). Diluted antibodies were allowed to bind to peptides printed onto slides for 2 hours at room temperature as described in the PepStar™ user manual (JPT Technologies). Following extensive washing (5×5 minutes with TBST), slides were incubated with secondary antibodies goat anti-human IgG, Alexa Fluor 568 conjugate, 1 μg/mL in 3% BSA-TBST) for 1 hour at room temperature. After extensive washing, (5×5 minutes with TBST, then 5×5 minutes with ultrapure water), slides were dried overnight and imaged using an Opera Phenix™ system in the 568 nm channel. Images were aligned to peptide array definition files using Galviewer software obtained from JPT Technologies and ImageJ software with control human IgG serving as landmarks.
(§2) Full-length human Tau (encoded by the microtubule-associated protein Tau isoform 2 gene (MAPT), amino acid sequence NCBI Reference Sequence No. NP_005901.2, SEQ ID NO: 1, variant designation “2N4R”) was divided into 15 amino acid peptides, offset by 5 amino acids (overlapping by 10 amino acids). Peptides were synthesized and covalently attached to silica slides in triplicate with a spot size of 0.5 mm (obtained from JPT Technologies, Berlin, Germany). Antibodies muIgG were diluted to a concentration of 30 μg/mL in 3% bovine serum albumin in Tris-buffered saline (10 mM Tris, pH 7.5, 150 mM NaCl) supplemented with 0.05% Tween® 20 (3% BSA-TBST). Diluted antibodies were allowed to bind to peptides printed onto slides for 2 hours at room temperature as described in the Pepstar™ user manual (JPT Technologies). Following extensive washing (5×5 min TBST), slides were incubated with secondary antibodies (donkey anti-mouse IgG, Alexafluor 647 conjugate, 5 μg/mL in 3% BSA-TBST) for 1 hour at room temperature. After extensive washing, (5×5 minutes TBST, 5×5 minutes ultrapure water), slides were dried under a stream of nitrogen and imaged on the Opera Phenix in the 647 nm channel. Images were aligned to peptide array definition file using Galviewer software obtained from JPT Technologies and ImageJ software with control mouse IgG serving as landmarks.

Peptide_020 = target: T2, Peptide_020
Description: as §1, §2

Peptide_008 = target: T3, Peptide_008
Description: as §1, §2

Peptide_074 = target: T4, Peptide_074
Description: as §1, §2

Peptide_081 = target: T5, Peptide_081
Description: as §1, §2

Peptide_038 = target: T6, Peptide_038
Description: as §1, §2

Peptide_034 = target: T7, Peptide_034
Description: as §1, §2

Peptide_009 = target: T8, Peptide_009
Description: as §1, §2

Peptide_063 = target: T9, Peptide_063
Description: as §1, §2

Peptide_054 = target: T10, Peptide_054
Description: as §1, §2

Peptide_042 = target: T11, Peptide_042
Description: as §1, §2

Peptide_015 = target: T12, Peptide_015
Description: as §1, §2

Peptide_006 = target: T13, Peptide_006
Description: as §1, §2

Peptide_002 = target: T14, Peptide_002
Description: as §1, §2

Peptide_047 = target: T15, Peptide_047
Description: as §1, §2

Peptide_067 = target: T16, Peptide_067
Description: as §1, §2

Peptide_058 = target: T17, Peptide_058
Description: as §1, §2

Peptide_036 = target: T18, Peptide_036
Description: as §1, §2

Peptide_059 = target: T19, Peptide_059
Description: as §1, §2

Peptide_043 = target: T20, Peptide_043
Description: as §1, §2

Peptide_011 = target: T21, Peptide_011
Description: as §1, §2

Peptide_051 = target: T22, Peptide_051
Description: as §1, §2

Peptide_025 = target: T23, Peptide_025
Description: as §1, §2

Peptide_077 = target: T24, Peptide_077
Description: as §1, §2

Peptide_001 = target: T25, Peptide_001
Description: as §1, §2

Peptide_073 = target: T26, Peptide_073
Description: as §1, §2

Peptide_014 = target: T27, Peptide_014
Description: as §1, §2

Peptide_085 = target: T28, Peptide_085
Description: as §1, §2

Peptide_023 = target: T29, Peptide_023
Description: as §1, §2

Peptide_012 = target: T30, Peptide_012
Description: as §1, §2

Peptide_030 = target: T31, Peptide_030
Description: as §1, §2

Peptide_031 = target: T32, Peptide_031
Description: as §1, §2

Peptide_044 = target: T33, Peptide_044
Description: as §1, §2

Peptide_017 = target: T34, Peptide_017
Description: as §1, §2

Peptide_033 = target: T35, Peptide_033
Description: as §1, §2

Binder	binding result (process-control peptide)	binding result (Peptide_020)	binding result (Peptide_008)	binding result (Peptide_074)	binding result (Peptide_081)	binding result (Peptide_038)	binding result (Peptide_034)	binding result (Peptide_009)	binding result (Peptide_063)	binding result (Peptide_054)	binding result (Peptide_042)	binding result (Peptide_015)	binding result (Peptide_006)	binding result (Peptide_002)	binding result (Peptide_047)	binding result (Peptide_067)	binding result (Peptide_058)	binding result (Peptide_036)	binding result (Peptide_059)	binding result (Peptide_043)	further results
B1	no binding (tested: 5 ug/mL)	no binding (tested: 5 ug/mL)	no binding (tested: 5 ug/mL)	no binding (tested: 5 ug/mL)	no binding (tested: 5 ug/mL)	no binding (tested: 5 ug/mL)	no binding (tested: 5 ug/mL)	no binding (tested: 5 ug/mL)	no binding (tested: 5 ug/mL)	no binding (tested: 5 ug/mL)	no binding (tested: 5 ug/mL)	no binding (tested: 5 ug/mL)	no binding (tested: 5 ug/mL)	no binding (tested: 5 ug/mL)	no binding (tested: 5 ug/mL)	no binding (tested: 5 ug/mL)	no binding (tested: 5 ug/mL)	no binding (tested: 5 ug/mL)	no binding (tested: 5 ug/mL)	no binding (tested: 5 ug/mL)	binding result (Peptide_011): no binding (tested: 5 ug/mL); binding result (Peptide_051): binds; binding result (Peptide_025): no binding (tested: 5 ug/mL); binding result (Peptide_077): no binding (tested: 5 ug/mL); binding result (Peptide_001): no binding (tested: 5 ug/mL); binding result (Peptide_073): no binding (tested: 5 ug/mL); binding result (Peptide_014): no binding (tested: 5 ug/mL); binding result (Peptide_085): no binding (tested: 5 ug/mL); binding result (Peptide_023): no binding (tested: 5 ug/mL); binding result (Peptide_012): no binding (tested: 5 ug/mL); binding result (Peptide_030): no binding (tested: 5 ug/mL); binding result (Peptide_031): no binding (tested: 5 ug/mL); binding result (Peptide_044): no binding (tested: 5 ug/mL); binding result (Peptide_017): no binding (tested: 5 ug/mL); binding result (Peptide_033): no binding (tested: 5 ug/mL)
B2	no binding (tested: 5 ug/mL)	no binding (tested: 5 ug/mL)	no binding (tested: 5 ug/mL)	no binding (tested: 5 ug/mL)	no binding (tested: 5 ug/mL)	no binding (tested: 5 ug/mL)	no binding (tested: 5 ug/mL)	no binding (tested: 5 ug/mL)	no binding (tested: 5 ug/mL)	no binding (tested: 5 ug/mL)	no binding (tested: 5 ug/mL)	no binding (tested: 5 ug/mL)	no binding (tested: 5 ug/mL)	no binding (tested: 5 ug/mL)	no binding (tested: 5 ug/mL)	no binding (tested: 5 ug/mL)	no binding (tested: 5 ug/mL)	no binding (tested: 5 ug/mL)	no binding (tested: 5 ug/mL)	no binding (tested: 5 ug/mL)	binding result (Peptide_011): no binding (tested: 5 ug/mL); binding result (Peptide_051): binds; binding result (Peptide_025): no binding (tested: 5 ug/mL); binding result (Peptide_077): no binding (tested: 5 ug/mL); binding result (Peptide_001): no binding (tested: 5 ug/mL); binding result (Peptide_073): no binding (tested: 5 ug/mL); binding result (Peptide_014): no binding (tested: 5 ug/mL); binding result (Peptide_085): no binding (tested: 5 ug/mL); binding result (Peptide_023): no binding (tested: 5 ug/mL); binding result (Peptide_012): no binding (tested: 5 ug/mL); binding result (Peptide_030): no binding (tested: 5 ug/mL); binding result (Peptide_031): no binding (tested: 5 ug/mL); binding result (Peptide_044): no binding (tested: 5 ug/mL); binding result (Peptide_017): no binding (tested: 5 ug/mL); binding result (Peptide_033): no binding (tested: 5 ug/mL)
